Source: the supplement of paper PMC10724198
± gives the standard deviation of the averaged measurements.

Each sequence was assayed on Saccharomyces cerevisiae (assay: protein stability index of tFT-peptide fusion (C-terminal peptide) (PSI (0-1 scale)); higher = more stable (slower turnover)). Conditions: genetic background: wild type; temperature: 30 C.
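Note: PSI is a weighted mean of sequencing reads over stability bins, variants kept only with over 10 reads, mCherry proximal and sfGFP distal, peptide attached via GGGS linker.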

Sequence | protein stability index
RVVDAPPSGCRS | 0.688 ± 0.037
RVVGCPPLLLPP | 0.639 ± 0.035
RVWRLIGFHVSS | 0.713 ± 0.012
RVYFGRPRSIVL | 0.656 ± 0.025
RVYKCNMKNNSK | 0.661 ± 0.018
RWGANSVSLEGE | 0.737 ± 0.02
RWGCVGWKVVGG | 0.709 ± 0.1
RWGGGQRLSRGT | 0.7082 ± 0.0037
RWGGWFCRLPIG | 0.698 ± 0.05
RYGARAGPPVNL | 0.68 ± 0.054
RYGHSVLQSGIS | 0.73 ± 0.042
RYLSVPGLEIPK | 0.677 ± 0.068
RYRPSPPPPPPH | 0.762 ± 0.054
RYVSCLSIPCLL | 0.6373 ± 0.0018
RYYNDKKEKNIL | 0.706 ± 0.0085
SACRVGKSILDT | 0.728 ± 0.057
SACVEQVHLRWF | 0.642 ± 0.092
SAFFSAWVLVLD | 0.555 ± 0.024
SAGAPRMPARGG | 0.691 ± 0.071
SAKQTYFKRVAQ | 0.66 ± 0.042
SALLLPRARPPD | 0.634 ± 0.055
SALRALRPGSLP | 0.806 ± 0.11
SALSKYFLSVRL | 0.633 ± 0.012
SAPFSPSLTHHP | 0.742 ± 0.14
SAPLVHASSSPQ | 0.722 ± 0.042
SAPPPAPPPPPR | 0.702 ± 0.027

Sequence | protein stability index
SAQHPSTRHRPP | 0.6 ± 0.035
SARLCPPRGGFR | 0.748 ± 0.018
SARLTPDLPAPS | 0.642 ± 0.017
SARRAALGVWVV | 0.636 ± 0.026
SASPHSPSPPSR | 0.627 ± 0.079
SASRPRRWGLAR | 0.609 ± 0.007
SASVACFCGLVV | 0.7 ± 0.023
SATHLLADPAPG | 0.661 ± 0.088
SATPSSLPLPPS | 0.739 ± 0.029
SAVGRTYGVIII | 0.673 ± 0.029
SAVRLGANLCRT | 0.6979 ± 0.0057
SAVVPYLGWSPV | 0.708 ± 0.015
SCAPRSPCTPPP | 0.718 ± 0.015
SCDIFIYTHLVS | 0.612 ± 0.031
SCFGVSRSAHFL | 0.728 ± 0.027
SCFLAFSFLCLF | 0.5 ± 0.0096
SCFLISIPLGFV | 0.5678 ± 0.0055
SCGMDLALGYAV | 0.689 ± 0.061
SCPPLKYNNKTY | 0.66 ± 0.015
SCPTPRFPQCSS | 0.633 ± 0.034
SCRLYIKVDKSA | 0.6464 ± 0.0034
SCVDHLGCHSSG | 0.739 ± 0.029
SCYLLDFGCIWV | 0.646 ± 0.0083
SDFLTYAEARLD | 0.72 ± 0.12
SDKDIYQRLSYE | 0.643 ± 0.036
SDSAPSPPAFLP | 0.6569 ± 0.0025

Sequence | protein stability index
SDVKFGFCGVAS | 0.655 ± 0.028
SEAFDSSARRAL | 0.541 ± 0.043
SEEGMGRCSDEE | 0.731 ± 0.028
SEFKLVVGSRSD | 0.715 ± 0.032
SEGKQYITGRWK | 0.702 ± 0.084
SELRFALCPAFL | 0.666 ± 0.019
SERPVPTSISLR | 0.682 ± 0.0069
SERRVKKIEEQI | 0.77 ± 0.084
SERYFFFQCGPH | 0.6802 ± 0.0033
SETGSGGLFSLP | 0.693 ± 0.018
SEVIIAISNKNH | 0.5275 ± 0.0019
SFACLLGRGWVD | 0.719 ± 0.06
SFADFVFMDHCA | 0.696 ± 0.062
SFAKHRNASMGR | 0.691 ± 0.04
SFERPAQAHALA | 0.698 ± 0.012
SFGSPLFFFPFL | 0.736 ± 0.036
SFIGEDHQCVFY | 0.723 ± 0.013
SFILRRISSAIS | 0.645 ± 0.014
SFISPFFCTRPV | 0.638 ± 0.012
SFLFWFFASGWL | 0.56 ± 0.047
SFLHLLCSFVLL | 0.51 ± 0.039
SFMPFVLPLSSP | 0.71 ± 0.023
SFPGVRHSTSDS | 0.676 ± 0.017
SFPYPHRDLVTP | 0.7114 ± 0.0016
SFSLAPSPPLLP | 0.721 ± 0.042
SFSSLVLSSCFW | 0.706 ± 0.026

Sequence | protein stability index
SGDSVAVGVTGT | 0.689 ± 0.056
SGDVGGGHWVGG | 0.729 ± 0.013
SGFLPPRFLSPS | 0.6895 ± 0.0012
SGFPSCFRPSFY | 0.702 ± 0.021
SGFRALWGLFAL | 0.683 ± 0.014
SGFYQNTCSSLV | 0.756 ± 0.12
SGGAGGSCMRYV | 0.704 ± 0.022
SGGGGGWQEEAG | 0.662 ± 0.027
SGGIPGSPNVRL | 0.657 ± 0.01
SGGRLVVCEGPG | 0.65 ± 0.087
SGGRRRAGKGAT | 0.69 ± 0.049
SGGVLSNGRLAA | 0.684 ± 0.052
SGHRLTYEFFPT | 0.741 ± 0.074
SGLFFRWCRLSW | 0.638 ± 0.031
SGLFGDAVPCCV | 0.632 ± 0.03
SGNYRGGLTVFS | 0.711 ± 0.023
SGPGPGAVGATC | 0.702 ± 0.057
SGPTFRWAGVLC | 0.593 ± 0.014
SGRGVEVGGEGE | 0.752 ± 0.053
SGRIHLLHSPWV | 0.712 ± 0.052
SGRMAIYVFGVV | 0.579 ± 0.01
SGSMHWTDPPGS | 0.6747 ± 0.0051
SGSVLHEFILVV | 0.543 ± 0.028
SGTLYELNAVVV | 0.644 ± 0.016
SGTPTFTPSYPS | 0.717 ± 0.026
SGTVRRQCGNPD | 0.69752 ± 0.00027

Sequence | protein stability index
SGVALFFFPPLL | 0.71 ± 0.039
SGVGLAETAGDD | 0.68 ± 0.027
SGVGSRDGVRGA | 0.684 ± 0.048
SGYCCDGCKGSY | 0.6461 ± 0.0028
SHAATKGSLFNV | 0.631 ± 0.0074
SHEARMVCGSSV | 0.63331 ± 0.00024
SHLLPPPLTPAS | 0.673 ± 0.031
SHLMETPACSAP | 0.915 ± 0.082
SHPLTLPSLLPP | 0.717 ± 0.045
SHRRLPPSRFYR | 0.7 ± 0.081
SHSTNNHKLTPR | 0.677 ± 0.082
SHSTPAFPLPPP | 0.638 ± 0.068
SHVDRVVFWYLL | 0.529 ± 0.033
SHVLPHPGLSPP | 0.655 ± 0.061
SHVMLCLHFLFR | 0.498 ± 0.018
SHVVDAPYRSEG | 0.66601 ± 0.00013
SINLLFHSFFFL | 0.608 ± 0.047
SIPAPLAPLWGL | 0.627 ± 0.055
SIPVPFSFPLFI | 0.598 ± 0.0065
SIQVFDTYIITD | 0.697 ± 0.068
SIRGLRTLKFLG | 0.6739 ± 0.0049
SIRNNMKRVRKN | 0.631 ± 0.022
SISFPPPPRSLT | 0.719 ± 0.08
SIWLLSGGQCFL | 0.684 ± 0.027
SKERLKSEKMKK | 0.745 ± 0.059
SKGQLRLNMCIL | 0.662 ± 0.046

Sequence | protein stability index
SKKKKNLQIPKK | 0.734 ± 0.12
SKKTSRSKVHTS | 0.685 ± 0.069
SLALSSPLPPPP | 0.735 ± 0.042
SLALVATWCGYR | 0.688 ± 0.052
SLASWLCVFSWD | 0.673 ± 0.027
SLCTFSFLRFGF | 0.738 ± 0.015
SLCTSVPEPPFS | 0.687 ± 0.0072
SLDLSQPMPWYH | 0.711 ± 0.051
SLDQGSSSLFIM | 0.731 ± 0.082
SLEFISIAFLDL | 0.685 ± 0.042
SLEQRPLQRPPS | 0.6941 ± 0.0063
SLFALPLPPPAQ | 0.695 ± 0.025
SLFFPLPLSSLF | 0.736 ± 0.07
SLFHTSLAYSFF | 0.7143 ± 0.0066
SLFLSRRSLYRV | 0.738 ± 0.034
SLFLVLSLAQLL | 0.579 ± 0.066
SLFPAGWAGFSD | 0.73 ± 0.011
SLFRGHLLPPRP | 0.688 ± 0.036
SLIPLLPPRSLS | 0.594 ± 0.1
SLKIHIKQIEKK | 0.766 ± 0.022
SLLILMYHIAPF | 0.53 ± 0.03
SLLLPPRPPCPP | 0.737 ± 0.024
SLLLRVLCGRLS | 0.5104 ± 0.0037
SLLPHAHAPSPL | 0.673 ± 0.014
SLLPHSPLLPPP | 0.694 ± 0.0031
SLLPQSAGRRPH | 0.666 ± 0.063

Sequence | protein stability index
SLLPRLTPHSPI | 0.75 ± 0.051
SLLSTPPPLASP | 0.669 ± 0.039
SLPALPPLGLFS | 0.71 ± 0.017
SLPCPISPPSFL | 0.697 ± 0.018
SLPLHFISGFYV | 0.6586 ± 0.0043
SLPLPPCLSPLQ | 0.723 ± 0.054
SLPLPVFSFPCS | 0.653 ± 0.00069
SLPLSSALFPPL | 0.72 ± 0.076
SLPPALPLPLSH | 0.64 ± 0.06
SLPPPPCLPPLT | 0.675 ± 0.044
SLPPSFPPPFLF | 0.7355 ± 0.001
SLRNGESTGLCF | 0.743 ± 0.098
SLRPALSFLPLP | 0.716 ± 0.054
SLSCDITRFVEY | 0.712 ± 0.19
SLSHSPSPPPPT | 0.638 ± 0.0084
SLSPWRLPIGGW | 0.708 ± 0.033
SLSSAPPIPPTL | 0.697 ± 0.011
SLSSRSVSLFKF | 0.806 ± 0.13
SLSTAEAHGRRS | 0.72 ± 0.082
SLSTLVFSFCVL | 0.517 ± 0.03
SLSVRTIFTSRS | 0.71 ± 0.071
SLTEAVHWDRIS | 0.67 ± 0.032
SLTLAHPGVDLA | 0.709 ± 0.021
SLTTPGMSQAYY | 0.703 ± 0.034
SLVSTSRALFAQ | 0.659 ± 0.019
SLVSWAGLLFWG | 0.727 ± 0.058

Sequence | protein stability index
SLWVLPGPVVLG | 0.621 ± 0.039
SLWVSLSCFRVV | 0.588 ± 0.028
SMAPDIQLYTAS | 0.68901 ± 0.0006
SMEVRGLKVRSC | 0.617 ± 0.015
SMFFNSIDATRW | 0.721 ± 0.053
SMGLYRDVVSGH | 0.665 ± 0.029
SMKAYRTLKTRL | 0.636 ± 0.075
SMWNFPRLAKTR | 0.685 ± 0.018
SNACHTTFGDPI | 0.719 ± 0.0078
SNAFWVRPFKIG | 0.667 ± 0.013
SNCLKHAYTTRT | 0.6604 ± 0.0056
SNTVSRAPFLLA | 0.681 ± 0.15
SNWGLYGCRLYP | 0.759 ± 0.073
SPAASPSRPPPI | 0.648 ± 0.025
SPAGQRPQVPVS | 0.667 ± 0.075
SPALPPPAPRLL | 0.719 ± 0.061
SPALSPCLRTGY | 0.717 ± 0.062
SPAPQLFLPPPV | 0.665 ± 0.052
SPCLLTLPVPFL | 0.695 ± 0.017
SPCLTRSALPSP | 0.687 ± 0.038
